The target of the test is PSMA2 (subunit of the human 20S proteasome) (human, UniProt P25787 1-234). Put plainly: cryo-EM structure.
Chain of PSMA2 (subunit of the human 20S proteasome) (P25787 whole entry): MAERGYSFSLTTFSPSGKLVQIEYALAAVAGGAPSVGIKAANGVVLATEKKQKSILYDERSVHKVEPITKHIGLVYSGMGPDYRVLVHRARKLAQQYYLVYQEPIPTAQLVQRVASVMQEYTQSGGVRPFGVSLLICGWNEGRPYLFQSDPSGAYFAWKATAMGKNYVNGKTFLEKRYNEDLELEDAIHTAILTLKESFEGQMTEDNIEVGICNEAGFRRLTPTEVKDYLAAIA

As for H-DNDDDLYG-OH [VCP C-terminal HbYX peptide H-DNDDDLYG-OH], the binding result is “binds”.

Values taken from doi:10.1101/2025.04.01.646186 (bioRxiv, 2025).
